Data taken from patent publication US20230125550A1 (ARCELLX, published 2023).
Changes are numbered by the printed parent chain.

B1: SEQ ID NO: 403 (designed binder)
chain: MGSWSEFNMRLDAIYERLTALGGSEAELAAFEKEIAAFESELQAYKGKGNPEVEWLRHSAALIRLELQAYRHN
notes: D domain, on phage
B2: SEQ ID NO: 404 (designed binder)
chain: B1 chain with S5I, T19V, H58K, S59V, L62N
notes: D domain, on phage
B3: SEQ ID NO: 405 (designed binder)
chain: B1 chain with S5Y, N8H, M9H, T19L, H58S, L62N, L65K
notes: D domain, on phage
B4: SEQ ID NO: 406 (designed binder)
chain: B1 chain with S5Y, N8A, M9K, T19V, H58S, L62N, L65E
notes: D domain, on phage
B5: SEQ ID NO: 407 (designed binder)
chain: B1 chain with S5T, N8Y, M9V, T19D, H58M, S59V, L62N, L65T
notes: D domain, on phage
B6: SEQ ID NO: 408 (designed binder)
chain: B1 chain with S5V, N8Y, M9T, E16G, T19D, H58Q, S59V, L62N, L65M
notes: D domain, on phage
B7: SEQ ID NO: 410 (designed binder)
chain: B1 chain with S5Y, N8A, M9I, T19H, W55Y, H58V, S59W, L62N, L65T
notes: D domain, on phage
B8: SEQ ID NO: 411 (designed binder)
chain: B1 chain with S5N, N8V, M9I, T19L, W55Y, H58M, S59A, L62N, L65M
notes: D domain, on phage
B9: SEQ ID NO: 412 (designed binder)
chain: MGSWSEFYVRVDAIYARLSALGGSEAELAAFEKEIAAFESELQAYKGKGNPEVEKLRVWAANIRHELQAYRHN
notes: D domain, on phage
B10: SEQ ID NO: 413 (designed binder)
chain: B9 chain with Y8H, V11L, S19D, K55R, V58E, H65R
notes: D domain, on phage
B11: SEQ ID NO: 414 (designed binder)
chain: B9 chain with S5V, Y8H, V9L, V11L, A16G, S19M, K55N, H65N
notes: D domain, on phage
B12: SEQ ID NO: 415 (designed binder)
chain: B9 chain with S5V, Y8E, V9M, V11L, Y15V, A16G, S19Y, V58R, H65S
notes: D domain, on phage
B13: SEQ ID NO: 416 (designed binder)
chain: B1 chain with S5V, M9I, T19Y, W55K, S59W, L62S, L65R
notes: D domain, on phage
B14: SEQ ID NO: 417 (designed binder)
chain: B9 chain with S5H, Y8G, V11L, A16D, S19M, K55F, V58Q, W59A, H65S
notes: D domain, on phage
B15: SEQ ID NO: 418 (designed binder)
chain: B1 chain with S5T, M9L, E16D, T19M, H58A, L62A, L65V
notes: D domain, on phage
B16: SEQ ID NO: 419 (designed binder)
chain: B1 chain with S5T, M9L, E16G, T19S, W55F, H58A, S59A, L62N, L65V
notes: D domain, on phage
B17: SEQ ID NO: 420 (designed binder)
chain: B1 chain with S5V, M9W, E16D, T19V, H58V, L62K, L65G
notes: D domain, on phage
B18: SEQ ID NO: 421 (designed binder)
chain: B1 chain with S5N, N8A, M9W, E16S, T19A, H58V, S59A, L62N, L65Y
notes: D domain, on phage
B19: SEQ ID NO: 422 (designed binder)
chain: B1 chain with S5T, N8A, M9W, E16D, T19L, S59V, L62N, L65R
notes: D domain, on phage
B20: SEQ ID NO: 423 (designed binder)
chain: MGSWVEFSIRLDAIYTRLVALGGSEAELAAFEKEIAAFESELQAYKGKGNPEVEMLRKGAANIRKELQAYRHN
notes: D domain, on phage
B21: SEQ ID NO: 424 (designed binder)
chain: B20 chain with S8Y, T16V, V19M, M55K, K58S, G59Y, K65Q
notes: D domain, on phage
B22: SEQ ID NO: 425 (designed binder)
chain: B20 chain with V5Y, I9M, T16D, V19M, M55Q, K58G, G59Y, K65N
notes: D domain, on phage
B23: SEQ ID NO: 426 (designed binder)
chain: B20 chain with S8I, I9Y, T16D, V19E, M55V, K58R, G59Y, K65N
notes: D domain, on phage
B24: SEQ ID NO: 427 (designed binder)
chain: B9 chain with S5I, Y8E, V11L, A16N, S19A, K55R, V58R, W59Y
notes: D domain, on phage
B25: SEQ ID NO: 428 (designed binder)
chain: B9 chain with S5F, V9D, V11L, A16M, S19I, K55V, V58R, W59Y, H65A
notes: D domain, on phage
B26: SEQ ID NO: 429 (designed binder)
chain: B1 chain with S5F, N8Y, E16D, W55R, H58T, S59F, L62N, L65K
notes: D domain, on phage
B27: SEQ ID NO: 430 (designed binder)
chain: B20 chain with V5Y, S8D, I9Y, T16D, V19A, M55R, G59W, K65E
notes: D domain, on phage
B28: SEQ ID NO: 431 (designed binder)
chain: B1 chain with N8Y, M9L, E16D, T19D, H58K, S59T, L62N, L65E
notes: D domain, on phage
B29: SEQ ID NO: 327 (designed binder)
chain: MGSWTEFVWRLEAIWDRLDALGGSEAELAAFEKEIAAFESELQAYKGKGNPEVEVLREDAAVIRHFLQAYRHN
notes: D domain, on phage
B30: SEQ ID NO: 333 (designed binder)
chain: MGSWEEFAQRLYAIEWRLYALGGSEAELAAFEKEIAAFESELQAYKGKGNPEVEVLRYVAAQIRYHLQAYRHN
notes: D domain, on phage
B31: SEQ ID NO: 334 (designed binder)
chain: MGSWDEFAWRLDVIFARLGALGGSEAELAAFEKEIAAFESELQAYKGKGNPEVEELRKNAAQIRDGLQAYRHN
notes: D domain, on phage
B32: SEQ ID NO: 335 (designed binder)
chain: MGSWDEFYYRLEAIEMRLGALGGSEAELAAFEKEIAAFESELQAYKGKGNPEVEELRHYAAQIRHMLQAYRHN
notes: D domain, on phage
B33: SEQ ID NO: 336 (designed binder)
chain: B32 chain with D5E, Y9D, E15Y, M16N, E55V, H58E, Q62D, H65E
notes: D domain, on phage
B34: SEQ ID NO: 352 (designed binder)
chain: B30 chain with E5D, A8G, Q9R, V55K, Y58E, V59I, Q62V, Y65S, H66N
notes: D domain, on phage
B35: SEQ ID NO: 361 (designed binder)
chain: MGSWDEFEQRLIAIEERLFALGGSEAELAAFEKEIAAFESELQAYKGKGNPEVEWLREEAAVIRKYLQAYRHN
notes: D domain, on phage
B36: SEQ ID NO: 362 (designed binder)
chain: MGSWVEFDQRLGAIWDRLVALGGSEAELAAFEKEIAAFESELQAYKGKGNPEVEHLRQGAAVIRDDLQAYRHN
notes: D domain, on phage
B37: SEQ ID NO: 365 (designed binder)
chain: MGSWHEFDQRLWAIEERLWALGGSEAELAAFEKEIAAFESELQAYKGKGNPEVETLRLYAALIRHDLQAYRHN
notes: D domain, on phage
B38: SEQ ID NO: 366 (designed binder)
chain: MGSWVEFWDRLDAIEGRLWALGGSEAELAAFEKEIAAFESELQAYKGKGNPEVEDLRWLAAEIRADLQAYRHN
notes: D domain, on phage
B39: SEQ ID NO: 373 (designed binder)
chain: MGSWFEFNYRLGAIEDRLWALGGSEAELAAFEKEIAAFESELQAYKGKGNPEVEMLRQIAAEIREFLQAYRHN
notes: D domain, on phage
B40: SEQ ID NO: 374 (designed binder)
chain: MGSWEEFFTRLDAINERLEALGGSEAELAAFEKEIAAFESELQAYKGKGNPEVEMLRYEAAEIRHMLQAYRHN
notes: D domain, on phage
B41: SEQ ID NO: 375 (designed binder)
chain: MGSWYEFSNRLDAIGERLWALGGSEAELAAFEKEIAAFESELQAYKGKGNPEVEILRHQAAEIRWFLQAYRHN
notes: D domain, on phage
B42: SEQ ID NO: 376 (designed binder)
chain: B38 chain with V5Y, D9G, G16E, K48R, D55M, W58E, L59D, A65G, D66Q
notes: D domain, on phage
B43: SEQ ID NO: 377 (designed binder)
chain: MGSWVEFWDRLWAIDYRLFALGGSEAELAAFEKEIAAFESELQAYKGKGNPEVEALRDEAAWIREELQAYRHN
notes: D domain, on phage
B44: SEQ ID NO: 378 (designed binder)
chain: B43 chain with W8V, Y16E, F19D, A55F, D58T, E59W, E66D
notes: D domain, on phage
B45: SEQ ID NO: 384 (designed binder)
chain: B43 chain with V5D, W8E, D9E, W12F, Y16E, F19W, D58Y, E59L, W62D
notes: D domain, on phage
B46: SEQ ID NO: 385 (designed binder)
chain: MGSWEEFWERLDAIDTRLWALGGSEAELAAFEKEIAAFESELQAYKGKGNPEVEVLRNDAADIREPLQAYRHN
notes: D domain, on phage
B47: SEQ ID NO: 386 (designed binder)
chain: B46 chain with E5M, D12E, T16M, V55Y, N58D, D62V, E65D, P66D
notes: D domain, on phage
B48: SEQ ID NO: 387 (designed binder)
chain: MGSWLEFMWRLDAIDERLWALGGSEAELAAFEKEIAAFESELQAYKGKGNPEVELLREMAAAIRDDLQAYRHN
notes: D domain, on phage
B49: SEQ ID NO: 388 (designed binder)
chain: B48 chain with L5T, M8Y, W9N, E16Q, L55M, M59Y, A62D, D65T
notes: D domain, on phage
B50: SEQ ID NO: 389 (designed binder)
chain: MGSWWEFIWRLEAIEQRLWALGGSEAELAAFEKEIAAFESELQAYKGKGNPEVEVLRSRAADIRTDLQAYRHN
notes: D domain, on phage

target: T1, recombinant human CD123-Fc (human, UniProt P26951 19-305); assay: phage ELISA, captured CD123-Fc
T1 construct: not shown: Fc part of CD123-Fc
T1 sequence: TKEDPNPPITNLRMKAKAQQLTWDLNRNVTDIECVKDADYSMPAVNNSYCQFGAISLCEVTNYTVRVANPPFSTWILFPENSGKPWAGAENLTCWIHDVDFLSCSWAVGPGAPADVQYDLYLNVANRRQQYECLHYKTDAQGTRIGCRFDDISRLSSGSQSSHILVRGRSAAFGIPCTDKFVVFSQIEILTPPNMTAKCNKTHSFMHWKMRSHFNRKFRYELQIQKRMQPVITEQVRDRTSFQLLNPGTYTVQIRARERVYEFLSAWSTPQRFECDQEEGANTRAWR
Experimental: Individual colonies containing phagemid from BCMA panning output were picked and phage were rescued in 96-well format using VCSM13 helper phage following standard protocols. To assay target binding by ELISA, 96-well plates were coated with 1.3 microg/ml goat anti-human IgG1-Fc antibody followed by incubation with 5 nM of recombinant human target (BCMA-Fc, CD123-Fc, AFP, or AFP123) or IgG1-Fc. 50 microl of rescued phage diluted 5× in ELISA blocking buffer was then added to each well. Binding was detected using an HRP-conjugated anti-M13 antibody and the ELISA ratio for each sequence is reported as the absorbance at 450 nm for target (i.e., BCMA-Fc, CD123-Fc, AFP, or AFP123) divided by that for IgG1-Fc averaged across all screened wells containing that clone.

Row | Binder | ELISA_avg [ratio A450 target/IgG1-Fc]
1 | B1 | 11.4
2 | B2 | 11.4
3 | B3 | 11.9
4 | B4 | 15.3
5 | B5 | 16
6 | B6 | 14.4
7 | B7 | 25.5
8 | B8 | 16.6
9 | B9 | 14.7
10 | B10 | 14.4
11 | B11 | 17.5
12 | B12 | 25.3
13 | B13 | 13.4
14 | B14 | 15.6
15 | B15 | 14.4
16 | B16 | 19.3
17 | B17 | 9.3
18 | B18 | 17.7
19 | B19 | 16.1
20 | B20 | 15.1
21 | B21 | 16.1
22 | B22 | 13
23 | B23 | 17
24 | B24 | 20.8
25 | B25 | 13.6

Row | Binder | ELISA_avg [ratio A450 target/IgG1-Fc]
26 | B26 | 13.1
27 | B27 | 24.9
28 | B28 | 15.7
29 | B29 | 3.6
30 | B30 | 16.9
31 | B31 | 4.6
32 | B32 | 7.2
33 | B33 | 18.6
34 | B34 | 5.8
35 | B35 | 5.9
36 | B36 | 5.3
37 | B37 | 3.3
38 | B38 | 3.5
39 | B39 | 6.9
40 | B40 | 3.9
41 | B41 | 3.9
42 | B42 | 5.4
43 | B43 | 3.6
44 | B44 | 3.2
45 | B45 | 5
46 | B46 | 6.8
47 | B47 | 4.2
48 | B48 | 5.1
49 | B49 | 3.3
50 | B50 | 4
